{
  "source": "patent US20220153803",
  "key": {"[1]": {"tested_on": "phospho-Thr^5-glucagon", "sequence (chain, as listed by the source)": "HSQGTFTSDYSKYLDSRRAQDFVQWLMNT"}, "[2]": {"tested_on": "phospho-Ser^8-glucagon"}},
  "data": [
    {"substance": "bovine alkaline phosphatase", "values": [
      {"measurement": "Dephosphorylation T50 (mins.) pH 7.4", "setting": "[1]", "value": 85.9, "unit": "min"},
      {"measurement": "Dephosphorylation T50 (mins.) pH 7.4", "setting": "[2]", "value": 94.9, "unit": "min"}
    ]}
  ]
}
